Assays:
TDP-43 RRM1-2 (human) = TDP-43 RRM1-2 (human) (UniProt Q13148); experiment: ITC; conditions: apparent, one set of sites model, ITC: 15 mM phosphate pH 6.8, 25 mM KCl, 1 mM TCEP, 25 C, NMR: same buffer, 298 K (SEA-HSQC 310 K), EMSA: 20 mM HEPES pH 7.6, 25 mM KCl, 2 mM MgCl2 …
TDP-43 RRM1-2 [1] = target: T1, TDP-43 RRM1-2 (human, UniProt Q13148 101-277); experiment: NMR; single RRM1-2 bound; ITC: 15 mM phosphate pH 6.8, 25 mM KCl, 1 mM TCEP, 25 C; NMR: same buffer, 298 K (SEA-HSQC 310 K); EMSA: 20 mM HEPES pH 7.6, 25 mM KCl, 1 mM TCEP, 2 mM MgCl2, room temperature, 10 pmol DNA in 10 uL; conditions: protein: recombinant; tags: His6 cleaved by TEV; residual N-terminal GSH (180 aa); single strand
T1 sequence (Q13148 101-277): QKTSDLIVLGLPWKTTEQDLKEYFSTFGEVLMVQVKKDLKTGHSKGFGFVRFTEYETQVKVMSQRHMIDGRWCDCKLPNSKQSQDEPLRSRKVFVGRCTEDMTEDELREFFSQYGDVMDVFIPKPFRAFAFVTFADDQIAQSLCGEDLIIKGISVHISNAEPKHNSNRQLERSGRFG

TDP-43 RRM1-2 [2] = target: T1, TDP-43 RRM1-2; experiment: ITC; Kd1, first monomer; ITC: 15 mM phosphate pH 6.8, 25 mM KCl, 1 mM TCEP, 25 C; NMR: same buffer, 298 K (SEA-HSQC 310 K); EMSA: 20 mM HEPES pH 7.6, 25 mM KCl, 1 mM TCEP, 2 mM MgCl2, room temperature, 10 pmol DNA in 10 uL; conditions: protein: recombinant; tags: His6 cleaved by TEV; residual N-terminal GSH (180 aa); single strand
TDP-43 RRM1 [3] = target: T2, TDP-43 RRM1 (human, UniProt Q13148 101-192); experiment: ITC; Kd1; ITC: 15 mM phosphate pH 6.8, 25 mM KCl, 1 mM TCEP, 25 C; NMR: same buffer, 298 K (SEA-HSQC 310 K); EMSA: 20 mM HEPES pH 7.6, 25 mM KCl, 1 mM TCEP, 2 mM MgCl2, room temperature, 10 pmol DNA in 10 uL; conditions: protein: recombinant; tags: His6 cleaved by TEV; chain copies: 2; single strand
T2 sequence (Q13148 101-192): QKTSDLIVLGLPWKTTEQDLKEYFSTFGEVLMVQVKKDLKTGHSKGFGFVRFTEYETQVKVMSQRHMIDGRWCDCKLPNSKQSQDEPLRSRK

TDP-43 RRM1-2 [4] = target: T1, TDP-43 RRM1-2; experiment: ITC; ITC: 15 mM phosphate pH 6.8, 25 mM KCl, 1 mM TCEP, 25 C; NMR: same buffer, 298 K (SEA-HSQC 310 K); EMSA: 20 mM HEPES pH 7.6, 25 mM KCl, 1 mM TCEP, 2 mM MgCl2, room temperature, 10 pmol DNA in 10 uL; conditions: protein: recombinant; tags: His6 cleaved by TEV; residual N-terminal GSH (180 aa); single strand
TDP-43 RRM2 = TDP-43 RRM2 (human, UniProt Q13148 176-277); experiment: ITC; two protein copies; Kd values not in material; ITC: 15 mM phosphate pH 6.8, 25 mM KCl, 1 mM TCEP, 25 C; NMR: same buffer, 298 K (SEA-HSQC 310 K); EMSA: 20 mM HEPES pH 7.6, 25 mM KCl, 1 mM TCEP, 2 mM MgCl2, room temperature, 10 pmol DNA in 10 uL; conditions: protein: recombinant; tags: His6 cleaved by TEV; chain copies: 2; single strand
TDP-43 RRM2, sequence (Q13148 176-277): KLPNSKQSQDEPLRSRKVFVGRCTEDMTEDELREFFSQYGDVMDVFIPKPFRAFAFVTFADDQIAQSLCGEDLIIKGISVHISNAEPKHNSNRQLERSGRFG

TDP-43 RRM1-2 [5] = target: T1, TDP-43 RRM1-2; experiment: NMR and SAXS; two RRM1-2 bound; ITC: 15 mM phosphate pH 6.8, 25 mM KCl, 1 mM TCEP, 25 C; NMR: same buffer, 298 K (SEA-HSQC 310 K); EMSA: 20 mM HEPES pH 7.6, 25 mM KCl, 1 mM TCEP, 2 mM MgCl2, room temperature, 10 pmol DNA in 10 uL; conditions: protein: recombinant; tags: His6 cleaved by TEV; residual N-terminal GSH (180 aa); single strand
TDP-43 RRM1-2 [6] = target: T1, TDP-43 RRM1-2; experiment: NMR and SAXS; same dimer interface as with (GU)12; ITC: 15 mM phosphate pH 6.8, 25 mM KCl, 1 mM TCEP, 25 C; NMR: same buffer, 298 K (SEA-HSQC 310 K); EMSA: 20 mM HEPES pH 7.6, 25 mM KCl, 1 mM TCEP, 2 mM MgCl2, room temperature, 10 pmol DNA in 10 uL; conditions: protein: recombinant; tags: His6 cleaved by TEV; residual N-terminal GSH (180 aa); single strand
TDP-43 RRM1 [7] = target: T2, TDP-43 RRM1; experiment: ITC; ITC: 15 mM phosphate pH 6.8, 25 mM KCl, 1 mM TCEP, 25 C; NMR: same buffer, 298 K (SEA-HSQC 310 K); EMSA: 20 mM HEPES pH 7.6, 25 mM KCl, 1 mM TCEP, 2 mM MgCl2, room temperature, 10 pmol DNA in 10 uL; conditions: protein: recombinant; tags: His6 cleaved by TEV; chain copies: 2; single strand
TDP-43 RRM1-2 [8] = target: T1, TDP-43 RRM1-2; experiment: NMR; additional CSPs and peak broadening; ITC: 15 mM phosphate pH 6.8, 25 mM KCl, 1 mM TCEP, 25 C; NMR: same buffer, 298 K (SEA-HSQC 310 K); EMSA: 20 mM HEPES pH 7.6, 25 mM KCl, 1 mM TCEP, 2 mM MgCl2, room temperature, 10 pmol DNA in 10 uL; conditions: protein: recombinant; tags: His6 cleaved by TEV; residual N-terminal GSH (180 aa); single strand

TDP-43 RRM1-2 (human), sequence (Q13148 101-277): as the sequence (Q13148 101-277) above

**Q.** For CLIP34nt (DNA), which Kd (TDP-43 RRM1-2 (human)) is on record?
**A.** The Kd was 270 nM.

**Q.** Does GUGUGUGUGUGU (ssRNA) [(GU)6] bind (TDP-43 RRM1-2 [1])?
**A.** Result: binds

**Q.** GTGTGTGTGTGTGTGTGTGTGTGT (ssDNA) [(GT)12] was tested. Which Kd (TDP-43 RRM1-2 [2]) did it give?
**A.** Its Kd is 51 nM.

**Q.** What about the Kd (TDP-43 RRM1 [3]) of the same molecule?
**A.** The Kd was 2300 nM.

**Q.** With GTGTGTGTGTGT (ssDNA) [(GT)6] as the molecule, how does the Kd (TDP-43 RRM1-2 [4]) read?
**A.** Its Kd is 68.4 nM.

**Q.** What about the binding signal (TDP-43 RRM2) of the same molecule?
**A.** Its binding signal is 0.05 Kd1/Kd2 ratio.

**Q.** What about the Kd (TDP-43 RRM1 [3]) of the same molecule?
**A.** Its Kd is 84.4 nM.

**Q.** Does GUGUGUGUGUGUGUGUGUGUGUGU (ssRNA) [(GU)12] bind (TDP-43 RRM1-2 [5])?
**A.** Result: binds

**Q.** Does GUGUGAAUGAAUGUGUGUGUGUGU (ssRNA) [AUG12-(GU)6] bind (TDP-43 RRM1-2 [6])?
**A.** Result: binds

**Q.** For GTGTGT (ssDNA) [(GT)3], which Kd (TDP-43 RRM1-2 [4]) is on record?
**A.** Its Kd is 2200 nM.

**Q.** What about the Kd (TDP-43 RRM1 [7]) of the same molecule?
**A.** The Kd was 929 nM.

**Q.** Does GUGUGUGUGUGUGUGUGUGUGUGUGUGUGUGUGUGUGUGUGUGUGUGU (ssRNA) [(GU)24] bind (TDP-43 RRM1-2 [8])?
**A.** Result: binds
